According to paper PMC9482650, “Quantitative fragmentomics allow affinity mapping of interactomes” (Nature Communications, 2022):

T1: MPDZ_5, O75970
T1 sequence (O75970 695-796, limits assumed, looked up): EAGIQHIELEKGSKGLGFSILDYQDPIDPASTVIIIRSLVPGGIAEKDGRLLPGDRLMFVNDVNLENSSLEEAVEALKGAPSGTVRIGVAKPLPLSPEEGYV

T2: SNTA1, Q13424
T2 sequence (Q13424 82-180, limits assumed, looked up): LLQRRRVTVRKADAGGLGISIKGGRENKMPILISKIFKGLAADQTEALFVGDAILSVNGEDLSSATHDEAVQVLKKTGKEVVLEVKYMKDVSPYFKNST

T3: MPP6, Q9NZW5
T3 sequence (Q9NZW5 125-219, limits assumed, looked up): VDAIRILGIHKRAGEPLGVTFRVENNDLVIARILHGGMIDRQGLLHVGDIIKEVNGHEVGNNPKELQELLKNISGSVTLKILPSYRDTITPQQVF

T4: DFNB31_3, Q9P202
T4 sequence (Q9P202 811-907, limits assumed, looked up): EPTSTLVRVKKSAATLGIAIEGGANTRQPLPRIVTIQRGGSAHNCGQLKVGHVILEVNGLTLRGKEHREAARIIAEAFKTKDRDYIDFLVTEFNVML

T5: CARD11, Q9BXL7
T5 sequence (Q9BXL7 662-765, limits assumed, looked up): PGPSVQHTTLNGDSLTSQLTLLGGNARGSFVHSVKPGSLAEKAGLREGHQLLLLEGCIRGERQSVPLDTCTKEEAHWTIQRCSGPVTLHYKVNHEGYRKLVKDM

T6: NHERF3_1, Q5T2W1
T6 sequence (Q5T2W1 4-100, limits assumed, looked up): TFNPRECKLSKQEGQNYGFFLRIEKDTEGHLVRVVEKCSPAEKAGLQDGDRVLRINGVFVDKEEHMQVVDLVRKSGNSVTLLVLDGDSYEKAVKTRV

T7: SIPA1L2, Q9P2F8
T7 sequence (Q9P2F8 945-1036, limits assumed, looked up): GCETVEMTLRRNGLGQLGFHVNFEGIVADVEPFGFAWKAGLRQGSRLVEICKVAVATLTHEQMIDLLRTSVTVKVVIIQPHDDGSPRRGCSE

T8: LIN7A, O14910
T8 sequence (O14910 103-200, limits assumed, looked up): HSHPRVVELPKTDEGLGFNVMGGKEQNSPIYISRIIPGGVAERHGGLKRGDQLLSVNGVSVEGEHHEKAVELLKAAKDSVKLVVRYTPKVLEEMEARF

T9: NHERF3_4, Q5T2W1
T9 sequence (Q5T2W1 373-468, limits assumed, looked up): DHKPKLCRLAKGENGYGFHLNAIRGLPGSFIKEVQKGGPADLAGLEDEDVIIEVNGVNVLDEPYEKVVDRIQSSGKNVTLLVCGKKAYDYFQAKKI

T10: PDZD2_2, O15018
T10 sequence (O15018 329-429, limits assumed, looked up): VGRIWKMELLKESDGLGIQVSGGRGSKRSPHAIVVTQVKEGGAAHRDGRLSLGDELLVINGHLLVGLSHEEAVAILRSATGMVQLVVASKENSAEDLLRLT

T11: DFNB31_2, Q9P202
T11 sequence (Q9P202 274-371, limits assumed, looked up): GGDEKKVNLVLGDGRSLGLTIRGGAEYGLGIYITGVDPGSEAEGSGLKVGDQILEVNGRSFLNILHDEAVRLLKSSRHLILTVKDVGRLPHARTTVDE

T12: PCLO, Q9Y6V0
T12 sequence (Q9Y6V0 4491-4600, limits assumed, looked up): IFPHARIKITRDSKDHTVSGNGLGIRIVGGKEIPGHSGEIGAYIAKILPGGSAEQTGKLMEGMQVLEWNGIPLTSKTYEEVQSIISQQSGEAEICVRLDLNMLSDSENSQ

B1: TRAF7, Q6Q0C0 (peptide)
chain: VDSTVKVWTC
B2: GJD4, Q96KN9 (peptide)
chain: HLRARKSEWV

Target: GRIP2_6, Q9C0E4
Experiment: holdup assay
Parameters: key: below the threshold = too weak to quantify, mostly under pKd 3.1 to 4
Settings: plain residues with an end cap or a label only (N-terminal biotin on a linker: ado-ado)

Chain of GRIP2_6, Q9C0E4 (Q9C0E4 648-740): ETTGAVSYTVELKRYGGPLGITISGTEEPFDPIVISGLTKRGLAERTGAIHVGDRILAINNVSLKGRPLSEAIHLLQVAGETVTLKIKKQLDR

Binder	pKd
B1	4.94
B2	below the threshold

Target: DLG1_2, Q12959
Experiment: holdup assay
Parameters: key: below the threshold = too weak to quantify, mostly under pKd 3.1 to 4
Settings: plain residues with an end cap or a label only (N-terminal biotin on a linker: ado-ado)

Binder	pKd
B1	3.84
B2	4.18

Target: T1, MPDZ_5, O75970
Experiment: holdup assay
Parameters: key: below the threshold = too weak to quantify, mostly under pKd 3.1 to 4
Settings: plain residues with an end cap or a label only (N-terminal biotin on a linker: ado-ado)

Binder	pKd
B1	below the threshold
B2	4.06

Target: T2, SNTA1, Q13424
Experiment: holdup assay
Parameters: key: below the threshold = too weak to quantify, mostly under pKd 3.1 to 4
Settings: plain residues with an end cap or a label only (N-terminal biotin on a linker: ado-ado)

Binder	pKd
B1	below the threshold
B2	below the threshold

Target: T3, MPP6, Q9NZW5
Experiment: holdup assay
Parameters: key: below the threshold = too weak to quantify, mostly under pKd 3.1 to 4
Settings: plain residues with an end cap or a label only (N-terminal biotin on a linker: ado-ado)

Binder	pKd
B1	below the threshold
B2	below the threshold

Target: DLG1_1, Q12959
Experiment: holdup assay
Parameters: key: below the threshold = too weak to quantify, mostly under pKd 3.1 to 4
Settings: plain residues with an end cap or a label only (N-terminal biotin on a linker: ado-ado)

Binder	pKd
B1	below the threshold
B2	below the threshold

Target: T4, DFNB31_3, Q9P202
Experiment: holdup assay
Parameters: key: below the threshold = too weak to quantify, mostly under pKd 3.1 to 4
Settings: plain residues with an end cap or a label only (N-terminal biotin on a linker: ado-ado)

Binder	pKd
B1	below the threshold
B2	below the threshold

Target: IL16_3, Q14005
Experiment: holdup assay
Parameters: key: below the threshold = too weak to quantify, mostly under pKd 3.1 to 4
Settings: plain residues with an end cap or a label only (N-terminal biotin on a linker: ado-ado)

Chain of IL16_3, Q14005 (Q14005 1107-1207): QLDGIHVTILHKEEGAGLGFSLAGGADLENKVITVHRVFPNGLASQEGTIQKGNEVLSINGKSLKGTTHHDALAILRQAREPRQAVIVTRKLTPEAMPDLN

Binder	pKd
B1	below the threshold
B2	below the threshold

Target: T5, CARD11, Q9BXL7
Experiment: holdup assay
Parameters: key: below the threshold = too weak to quantify, mostly under pKd 3.1 to 4
Settings: plain residues with an end cap or a label only (N-terminal biotin on a linker: ado-ado)

Binder	pKd
B1	below the threshold
B2	below the threshold

Target: T6, NHERF3_1, Q5T2W1
Experiment: holdup assay
Parameters: key: below the threshold = too weak to quantify, mostly under pKd 3.1 to 4
Settings: plain residues with an end cap or a label only (N-terminal biotin on a linker: ado-ado)

Binder	pKd
B1	below the threshold
B2	4.08

Target: GRIP2_5, Q9C0E4
Experiment: holdup assay
Parameters: key: below the threshold = too weak to quantify, mostly under pKd 3.1 to 4
Settings: plain residues with an end cap or a label only (N-terminal biotin on a linker: ado-ado)

Chain of GRIP2_5, Q9C0E4 (Q9C0E4 544-642): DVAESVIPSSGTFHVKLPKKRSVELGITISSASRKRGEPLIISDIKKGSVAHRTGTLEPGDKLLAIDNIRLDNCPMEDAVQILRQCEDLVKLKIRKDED

Binder	pKd
B1	below the threshold
B2	below the threshold

Target: MAST1, Q9Y2H9
Experiment: holdup assay
Parameters: key: below the threshold = too weak to quantify, mostly under pKd 3.1 to 4
Settings: plain residues with an end cap or a label only (N-terminal biotin on a linker: ado-ado)

Chain of MAST1, Q9Y2H9 (Q9Y2H9 962-1065): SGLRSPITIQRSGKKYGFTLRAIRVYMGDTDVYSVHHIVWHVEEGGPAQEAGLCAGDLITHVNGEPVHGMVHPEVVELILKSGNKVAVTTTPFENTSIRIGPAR

Binder	pKd
B1	below the threshold
B2	below the threshold

Target: DLG2_3, Q15700
Experiment: holdup assay
Parameters: key: below the threshold = too weak to quantify, mostly under pKd 3.1 to 4
Settings: plain residues with an end cap or a label only (N-terminal biotin on a linker: ado-ado)

Binder	pKd
B1	3.73
B2	4.16

Target: GIPC2, Q8TF65
Experiment: holdup assay
Parameters: key: below the threshold = too weak to quantify, mostly under pKd 3.1 to 4
Settings: plain residues with an end cap or a label only (N-terminal biotin on a linker: ado-ado)

Chain of GIPC2, Q8TF65 (Q8TF65 112-203): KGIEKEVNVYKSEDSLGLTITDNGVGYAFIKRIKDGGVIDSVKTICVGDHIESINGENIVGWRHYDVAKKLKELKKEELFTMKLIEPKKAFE

Binder	pKd
B1	below the threshold
B2	below the threshold

Target: GRID2IP_2, A4D2P6
Experiment: holdup assay
Parameters: key: below the threshold = too weak to quantify, mostly under pKd 3.1 to 4
Settings: plain residues with an end cap or a label only (N-terminal biotin on a linker: ado-ado)

Chain of GRID2IP_2, A4D2P6 (A4D2P6 272-370): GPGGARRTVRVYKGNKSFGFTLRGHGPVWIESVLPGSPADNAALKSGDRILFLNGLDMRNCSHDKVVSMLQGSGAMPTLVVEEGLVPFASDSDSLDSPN

Binder	pKd
B1	below the threshold
B2	3.89

Target: T7, SIPA1L2, Q9P2F8
Experiment: holdup assay
Parameters: key: below the threshold = too weak to quantify, mostly under pKd 3.1 to 4
Settings: plain residues with an end cap or a label only (N-terminal biotin on a linker: ado-ado)

Binder	pKd
B1	below the threshold
B2	below the threshold

Target: T8, LIN7A, O14910
Experiment: holdup assay
Parameters: key: below the threshold = too weak to quantify, mostly under pKd 3.1 to 4
Settings: plain residues with an end cap or a label only (N-terminal biotin on a linker: ado-ado)

Binder	pKd
B1	below the threshold
B2	below the threshold

Target: T9, NHERF3_4, Q5T2W1
Experiment: holdup assay
Parameters: key: below the threshold = too weak to quantify, mostly under pKd 3.1 to 4
Settings: plain residues with an end cap or a label only (N-terminal biotin on a linker: ado-ado)

Binder	pKd
B1	below the threshold
B2	below the threshold

Target: T10, PDZD2_2, O15018
Experiment: holdup assay
Parameters: key: below the threshold = too weak to quantify, mostly under pKd 3.1 to 4
Settings: plain residues with an end cap or a label only (N-terminal biotin on a linker: ado-ado)

Binder	pKd
B1	4.27
B2	5.81

Target: MAGI2_2, Q86UL8
Experiment: holdup assay
Parameters: key: below the threshold = too weak to quantify, mostly under pKd 3.1 to 4
Settings: plain residues with an end cap or a label only (N-terminal biotin on a linker: ado-ado)

Chain of MAGI2_2, Q86UL8 (Q86UL8 410-522): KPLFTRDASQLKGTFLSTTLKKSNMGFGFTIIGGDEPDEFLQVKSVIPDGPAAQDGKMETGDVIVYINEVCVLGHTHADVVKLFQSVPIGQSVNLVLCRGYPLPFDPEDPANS

Binder	pKd
B1	3.65
B2	below the threshold

Target: T11, DFNB31_2, Q9P202
Experiment: holdup assay
Parameters: key: below the threshold = too weak to quantify, mostly under pKd 3.1 to 4
Settings: plain residues with an end cap or a label only (N-terminal biotin on a linker: ado-ado)

Binder	pKd
B1	below the threshold
B2	below the threshold

Target: FRMPD2_3, Q68DX3
Experiment: holdup assay
Parameters: key: below the threshold = too weak to quantify, mostly under pKd 3.1 to 4
Settings: plain residues with an end cap or a label only (N-terminal biotin on a linker: ado-ado)

Chain of FRMPD2_3, Q68DX3 (Q68DX3 1073-1166): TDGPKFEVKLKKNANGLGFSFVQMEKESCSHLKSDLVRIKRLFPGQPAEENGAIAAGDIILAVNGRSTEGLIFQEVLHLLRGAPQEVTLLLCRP

Binder	pKd
B1	3.71
B2	below the threshold

Target: GRASP, Q7Z6J2
Experiment: holdup assay
Parameters: key: below the threshold = too weak to quantify, mostly under pKd 3.1 to 4
Settings: plain residues with an end cap or a label only (N-terminal biotin on a linker: ado-ado)

Chain of GRASP, Q7Z6J2 (Q7Z6J2 96-193): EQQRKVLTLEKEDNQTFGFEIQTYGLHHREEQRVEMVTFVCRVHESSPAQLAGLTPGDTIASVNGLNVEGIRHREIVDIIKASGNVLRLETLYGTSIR

Binder	pKd
B1	3.85
B2	4.01

Target: T12, PCLO, Q9Y6V0
Experiment: holdup assay
Parameters: key: below the threshold = too weak to quantify, mostly under pKd 3.1 to 4
Settings: plain residues with an end cap or a label only (N-terminal biotin on a linker: ado-ado)

Binder	pKd
B1	below the threshold
B2	below the threshold

Target: FRMPD2_2, Q68DX3
Experiment: holdup assay
Parameters: key: below the threshold = too weak to quantify, mostly under pKd 3.1 to 4
Settings: plain residues with an end cap or a label only (N-terminal biotin on a linker: ado-ado)

Chain of FRMPD2_2, Q68DX3 (Q68DX3 944-1038): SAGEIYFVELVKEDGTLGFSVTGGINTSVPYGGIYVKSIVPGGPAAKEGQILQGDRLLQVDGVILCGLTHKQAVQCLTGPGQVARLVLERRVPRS

Binder	pKd
B1	below the threshold
B2	below the threshold

Target: NHERF2_2, Q15599
Experiment: holdup assay
Parameters: key: below the threshold = too weak to quantify, mostly under pKd 3.1 to 4
Settings: plain residues with an end cap or a label only (N-terminal biotin on a linker: ado-ado)

Chain of NHERF2_2, Q15599 (Q15599 142-238): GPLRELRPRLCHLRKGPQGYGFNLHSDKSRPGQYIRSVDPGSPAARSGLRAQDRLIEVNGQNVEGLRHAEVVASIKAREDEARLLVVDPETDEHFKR

Binder	pKd
B1	below the threshold
B2	below the threshold
